Results published in article PMC12009414.
“And” between values parts separate entries of the source, which are not always exact repeats. Equal values may be shown once.

Assays:
Assay in all cases: cryo-EM structure
Conditions in all cases: remark: other sources report otherwise
[1] = molecular target: T1, human DNA polymerase θ helicase domain (residues 1-894) (human), O75417
[2] = molecular target: T1, human DNA polymerase θ helicase domain …; remark: listed apart in the source
[3] = molecular target: T1, human DNA polymerase θ helicase domain …; remark: listed apart in the source

- stoichiometry N [1]: 2
- stoichiometry N [2]: 2
- stoichiometry N [3]: 2 and 4
B1: human DNA polymerase θ helicase domain (residues 1-894), O75417 1-894 (domain or fragment)
chain: MNLLRRSGKRRRSESGSDSFSGSGGDSSASPQFLSGSVLSPPPGLGRCLKAAAAGECKPTVPDYERDKLLLANWGLPKAVLEKYHSFGVKKMFEWQAECLLLGQVLEGKNLVYSAPTSAGKTLVAELLILKRVLEMRKKALFILPFVSVAKEKKYYLQSLFQEVGIKVDGYMGSTSPSRHFSSLDIAVCTIERANGLINRLIEENKMDLLGMVVVDELHMLGDSHRGYLLELLLTKICYITRKSASCQADLASSLSNAVQIVGMSATLPNLELVASWLNAELYHTDFRPVPLLESVKVGNSIYDSSMKLVREFEPMLQVKGDEDHVVSLCYETICDNHSVLLFCPSKKWCEKLADIIAREFYNLHHQAEGLVKPSECPPVILEQKELLEVMDQLRRLPSGLDSVLQKTVPWGVAFHHAGLTFEERDIIEGAFRQGLIRVLAATSTLSSGVNLPARRVIIRTPIFGGRPLDILTYKQMVGRAGRKGVDTVGESILICKNSEKSKGIALLQGSLKPVRSCLQRREGEEVTGSMIRAILEIIVGGVASTSQDMHTYAACTFLAASMKEGKQGIQRNQESVQLGAIEACVMWLLENEFIQSTEASDGTEGKVYHPTHLGSATLSSSLSPADTLDIFADLQRAMKGFVLENDLHILYLVTPMFEDWTTIDWYRFFCLWEKLPTSMKRVAELVGVEEGFLARCVKGKVVARTERQHRQMAIHKRFFTSLVLLDLISEVPLREINQKYGCNRGQIQSLQQSAAVYAGMITVFSNRLGWHNMELLLSQFQKRLTFGIQRELCDLVRVSLLNAQRARVLYASGFHTVADLARANIVEVEVILKNAVPFKSARKAVDEEEEAVEERRNMRTIWVTGRKGLTEREAAALIVEEARMILQQDLVEM
